# Assay results published in publication PMC5025174 (PLoS ONE, 2016).
# Biological target: T1, human IGF1R ectodomain (Homo sapiens, UniProt P08069)
# T1 construct: human IGF1R, ectodomain; source: bought: R&D Systems
# Assay: SPR; SEC-purified VHH monomers, 0.1-10 nM, over human IGF1R ectodomain amine-coupled to a CM5 chip (476 RU); 25°C, HBS-EP pH 7.4; 1:1 binding model
# Settings: both partners purified
# T1 sequence (P08069 741-935): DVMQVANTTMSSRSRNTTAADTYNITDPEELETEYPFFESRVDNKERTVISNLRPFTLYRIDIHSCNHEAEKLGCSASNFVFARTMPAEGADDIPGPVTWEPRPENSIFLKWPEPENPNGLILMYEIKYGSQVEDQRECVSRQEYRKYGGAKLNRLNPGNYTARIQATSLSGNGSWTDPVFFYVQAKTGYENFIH
row,Binder,Kd [nM]
1,"IGF1R-4 VHH, wild-type (VHH, anti-human IGF1R; bears Val59, Asp65 (Kabat); source: E. coli TG1, periplasm (osmotic shock), purified (IMAC)) VHH: QVKLEESGGGLVQAGGSLRLSCEVSGGTVSPTAMGWFRQAPGKEREFVGHITWSRGTTRVASSVKDRFTISRDSAKNTVYLQMNSLKSEDTAVYYCAASTFLRILPEESAYTYWGQGTQVTVSS",0.3
2,"IGF1R-5 VHH, wild-type (VHH, anti-human IGF1R; bears Ala57, Asn82b (Kabat); source: E. coli TG1, periplasm (osmotic shock), purified (IMAC)) VHH: QVKLEESGGGLVQAGGSLRLSCAASGRTIDNYAMAWSRQAPGKDREFVATIDWGDGGARYANSVKGRFTISRDNAKGTMYLQMNNLEPEDTAVYSCAMARQSRVNLDVARYDYWGQGTQVTVSS",0.8
3,"IGF1R-4 VHH, humanized (VHH, as the VHH of m18 with FRs reverted to human IGHV3 germline; also called humanized IGF1R-4; source: E. coli TG1, periplasm (osmotic shock), purified (IMAC); periplasmic extract for protein A chromatography) VHH: QVQLVESGGGLVQPGGSLRLSCAVSGGTVSPTAMGWFRQAPGKGLEFVGHITWSRGTTRYASSVKGRFTISRDNSKNTVYLQMNSLRAEDTAVYYCAASTFLRILPEESAYTYWGQGTLVTVSS",0.4
4,"IGF1R-5 VHH, humanized (VHH, as the VHH of m23 with FRs reverted to human IGHV3 germline; also called humanized IGF1R-5; source: E. coli TG1, periplasm (osmotic shock), purified (IMAC); periplasmic extract for protein A chromatography) VHH: QVQLVESGGGLVQPGGSLRLSCAASGRTIDNYAMAWSRQAPGKGLEFVATIDWGDGGTRYANSVKGRFTISRDNSKNTMYLQMNSLRAEDTAVYYCAMARQSRVNLDVARYDYWGQGTLVTVSS",0.9

# Biological target: T2, human ICAM-1 ectodomain (Homo sapiens, UniProt P05362)
# T2 construct: human ICAM-1, ectodomain; source: bought: R&D Systems
# T2 sequence (P05362 28-480): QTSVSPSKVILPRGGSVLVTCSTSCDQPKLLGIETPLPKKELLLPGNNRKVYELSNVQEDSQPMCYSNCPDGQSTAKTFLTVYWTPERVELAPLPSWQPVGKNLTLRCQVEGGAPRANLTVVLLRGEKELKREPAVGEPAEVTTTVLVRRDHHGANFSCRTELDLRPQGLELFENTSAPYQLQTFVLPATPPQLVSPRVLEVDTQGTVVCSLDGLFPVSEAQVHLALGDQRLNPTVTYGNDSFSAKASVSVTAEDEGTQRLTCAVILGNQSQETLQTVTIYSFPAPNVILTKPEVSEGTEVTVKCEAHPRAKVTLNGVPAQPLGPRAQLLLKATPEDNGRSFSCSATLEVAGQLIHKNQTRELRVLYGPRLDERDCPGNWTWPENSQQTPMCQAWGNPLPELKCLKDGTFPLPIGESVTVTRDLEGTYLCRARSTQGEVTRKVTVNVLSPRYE
# Assay: SPR; SEC-purified VHH monomers, 0.5-200 nM, over human ICAM-1 ectodomain amine-coupled to a CM5 chip (1348 RU); 25°C, HBS-EP pH 7.4; 1:1 binding model
# Settings: both partners purified
row,Binder,Kd [nM]
1,"ICAM11-4 VHH, wild-type (VHH, anti-human ICAM-1; bears Ile57 (Kabat); source: E. coli TG1, periplasm (osmotic shock), purified (IMAC)) VHH: QVQLVESGGGLVQPGGSLRLSCAASGSISSLYVMGWYRQAPGKQRELVADITSSGSIYYVDSLKGRFTISRDNARSTVYLQMNSLEPEDTAVYYCMAHVRQDSGSEYLTYWGQGTQVTVSS",0.9
2,"ICAM11-4 VHH I57T (SpA-engineered) (VHH, as the VHH of m6 with the stated change; numbers count on: Kabat numbering; also called ICAM11-4 I57T; SpA-engineered ICAM11-4; source: E. coli TG1, periplasm (osmotic shock), purified (IMAC); periplasmic extract for protein A chromatography) VHH: QVQLVESGGGLVQPGGSLRLSCAASGSISSLYVMGWYRQAPGKQRELVADITSSGSTYYVDSLKGRFTISRDNARSTVYLQMNSLEPEDTAVYYCMAHVRQDSGSEYLTYWGQGTQVTVSS",1.3
3,"ICAM34-1 VHH, wild-type (VHH, anti-human ICAM-1; bears Ala57, Pro75, Gly82b (Kabat); source: E. coli TG1, periplasm (osmotic shock), purified (IMAC)) VHH: QVKLEESGGGLVQPGGSLRLSCAASGSIFSINDMGWYRQAPGKQRELVARITRDGSAAYEDSVKGRFTISRDNAPNTVFLQMNGLKPEDTAVYYCNAEIITTQTLGRMLGEYWGQGTQVTVSS",32
